Data as given in the supplement of paper PMC7125110.
± gives the standard error. For some assays here: This sample holds only a part of the variants without activity.

B1: glmS ribozyme (parent)
chain: AUAAAAGCGCCAGAACUACAGAAAUGUAGUUGACGAGGAGGAGGUUUAUCGAAUUUUCGGCGGAUGCCUCCAAA

Legend:
Conditions in all cases: with glucosamine-6-phosphate
[1] = variants of: B1; assay: kcat; higher = faster cleavage; RNA array
How it was run: (§1)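 The measurements used barcoded ribozyme variants on sequenced MiSeq chips, transcribed in situ by E. coli RNA polymerase and tracked at 37 °C with a hybridised Cy3 probe. Glucosamine-6-phosphate, 40 μM to 10 mM in HEPES/KCl/Mg(OAc)2 buffer, was flowed in while tiles were imaged over ~14 h. Baseline-normalised signals, also normalised to non-cleaving reference variants, gave per-tile medians that were fit to one- or two-exponential decays for kobs. kcat and KM resulted from weighted Michaelis–Menten fits across concentrations.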

[2] = variants of: B1; assay: KM; higher = weaker cofactor use; RNA array
How it was run: as §1

[3] = variants of: B1; assay: self-cleavage kobs at 40 uM GlcN6P; higher = faster cleavage; RNA array
How it was run: as §1

[4] = variants of: B1; assay: self-cleavage kobs at 160 uM GlcN6P; higher = faster cleavage; RNA array
How it was run: as §1

[5] = variants of: B1; assay: self-cleavage kobs at 640 uM GlcN6P; higher = faster cleavage; RNA array
How it was run: as §1

[6] = variants of: B1; assay: self-cleavage kobs at 2500 uM GlcN6P; higher = faster cleavage; RNA array
How it was run: as §1

[7] = variants of: B1; assay: self-cleavage kobs at 10000 uM GlcN6P; higher = faster cleavage; RNA array
How it was run: as §1

| Variant | kcat [1] [s⁻¹] | KM [2] [µM] | self-cleavage kobs at 40 uM GlcN6P [3] [s⁻¹] | self-cleavage kobs at 160 uM GlcN6P [4] [s⁻¹] | self-cleavage kobs at 640 uM GlcN6P [5] [s⁻¹] | self-cleavage kobs at 2500 uM GlcN6P [6] [s⁻¹] | self-cleavage kobs at 10000 uM GlcN6P [7] [s⁻¹] |
| --- | --- | --- | --- | --- | --- | --- | --- |
| G29A C67U | 0.000866 ± 0.00021 | 742 ± 320 | 4.43e-05 ± 8.6e-06 | 0.000247 ± 5.1e-05 | 0.00034 ± 5.8e-05 | 0.00056 ± 0.00012 | 0.00104 ± 0.00017 |
| U54A G66U | 0.00199 ± 0.00037 | 1460 ± 440 | 8.58e-05 ± 1.9e-05 | 0.000194 ± 3.3e-05 | 0.000521 ± 8e-05 | 0.00141 ± 0.00024 | 0.00174 ± 0.00024 |
| U54A G66C | 0.000876 ± 0.00013 | 1230 ± 390 |  | 0.00012 ± 2.7e-05 | 0.000259 ± 6.7e-05 | 0.000758 ± 0.00014 | 0.000737 ± 0.0001 |
| U56A C71G | 0.00102 ± 0.00013 | 1010 ± 210 | 5.19e-05 ± 8e-06 | 0.000119 ± 1.8e-05 | 0.000396 ± 4.5e-05 | 0.000715 ± 9.6e-05 | 0.000952 ± 0.0001 |
| A14C C16G A53U | 2.08e-05 ± 7.9e-07 | 1700 ± 260 |  |  |  |  |  |
| A14C A53G | 0.00897 ± 0.0044 |  | 0.00012 ± 1.8e-05 | 0.000245 ± 3.7e-05 | 0.00116 ± 0.00015 | 0.0024 ± 0.00037 | 0.00721 ± 0.001 |
| U49A C67U | < 1e-05 |  | < 1e-05 |  |  |  | < 1e-05 |
| C50U C71U | 5.37e-05 ± 8.4e-06 |  |  |  |  | 4.54e-05 ± 9.2e-06 | 4.57e-05 ± 1e-05 |
| G13U C58G | 0.000545 ± 0.00027 |  |  |  | 9.89e-05 ± 1.6e-05 | 0.000127 ± 2e-05 | 0.000381 ± 3.9e-05 |
| A20G C58U C70G | 7.18e-05 ± 2.9e-05 |  |  |  | 0.000104 ± 2.6e-05 | 7.21e-05 ± 1.9e-05 |  |
| G13C A53G | 0.000174 ± 2.8e-05 | 3550 ± 1100 |  |  | 2.97e-05 ± 9e-06 | 7.05e-05 ± 7.7e-06 | 0.00013 ± 1.9e-05 |
| U2A G29U | 0.00852 ± 0.0033 |  | 0.000181 ± 3.8e-05 | 0.000569 ± 0.00018 | 0.00137 ± 0.00032 |  | 0.00749 ± 0.0017 |
| C16A G29C | 0.00401 ± 0.0015 | 1940 ± 970 | 0.000114 ± 1.3e-05 | 0.000215 ± 4.5e-05 | 0.000949 ± 0.00011 | 0.00217 ± 0.0003 | 0.00391 ± 0.00075 |
| G9A G32C C67A | < 1e-05 | 304 ± 150 |  |  |  | < 1e-05 |  |
| C8A C70A | 1.28e-05 ± 2.3e-06 |  |  |  |  |  |  |
| C8A C70U | < 1e-05 |  |  | < 1e-05 |  |  |  |
| U31A C58A | 0.00103 ± 0.00024 |  |  |  |  |  | 0.000242 ± 3.7e-05 |

| Variant | kcat [1] [s⁻¹] | KM [2] [µM] | self-cleavage kobs at 40 uM GlcN6P [3] [s⁻¹] | self-cleavage kobs at 160 uM GlcN6P [4] [s⁻¹] | self-cleavage kobs at 640 uM GlcN6P [5] [s⁻¹] | self-cleavage kobs at 2500 uM GlcN6P [6] [s⁻¹] | self-cleavage kobs at 10000 uM GlcN6P [7] [s⁻¹] |
| --- | --- | --- | --- | --- | --- | --- | --- |
| A15G C61U | 1.94e-05 ± 1e-06 | 631 ± 280 |  |  |  |  |  |
| U55A C68A | 7.99e-05 ± 1.6e-05 |  |  | 6.93e-05 ± 1.2e-05 | 8.04e-05 ± 2.1e-05 | 6.96e-05 ± 1.3e-05 |  |
| C68G C70U | 2.04e-05 ± 6.3e-06 |  |  |  | 3.32e-05 ± 1.3e-05 |  |  |
| U47G A53G | 0.00632 ± 0.0012 | 804 ± 250 | 0.000319 ± 4.7e-05 | 0.000975 ± 0.00019 | 0.00317 ± 0.00055 | 0.00362 ± 0.00064 | 0.0074 ± 0.00097 |
| A39G U56C | 0.00799 ± 0.002 | 3240 ± 1100 | 0.000109 ± 1.2e-05 | 0.000656 ± 0.00018 | 0.00106 ± 0.00014 | 0.0039 ± 0.00058 | 0.00611 ± 0.00076 |
| A12C G13U | 0.000279 ± 2.1e-05 | 6200 ± 850 |  |  | 2.43e-05 ± 6.8e-06 | 8.18e-05 ± 1e-05 | 0.000172 ± 1.6e-05 |
| A15U G44A | 3.69e-05 ± 5.2e-07 | 2790 ± 140 |  |  |  |  | 2.88e-05 ± 1.1e-05 |
| A33U U49G | 1.42e-05 ± 5.2e-07 | 44.7 ± 12 |  | < 1e-05 | < 1e-05 |  |  |
| C16A U30G | 0.000341 ± 4.6e-05 | 2530 ± 560 |  |  | 6.82e-05 ± 1.2e-05 | 0.000175 ± 2.3e-05 | 0.000243 ± 9.7e-05 |
| A33U U54G | 0.000139 ± 4.4e-05 |  | < 1e-05 | < 1e-05 | 4.57e-05 ± 1.6e-05 | 5.67e-05 ± 9.8e-06 | 0.000111 ± 1.8e-05 |
| C16A G66U | 0.000122 ± 3.2e-05 | 8450 ± 4000 |  |  |  | 2.61e-05 ± 1.2e-05 | 6.63e-05 ± 1.5e-05 |
| A14G A39C | 0.0183 ± 0.0021 | 3470 ± 520 | 0.000225 ± 3.6e-05 | 0.000699 ± 0.00017 | 0.00281 ± 0.00047 | 0.00921 ± 0.0025 | 0.0134 ± 0.0019 |
| A12G U47C | 0.000813 ± 9.1e-05 | 3820 ± 720 |  | 3.52e-05 ± 1.3e-05 | 0.000111 ± 1.5e-05 | 0.000412 ± 8.3e-05 | 0.000577 ± 6.1e-05 |
| G40U U55A | 0.00366 ± 0.0016 |  | 0.00026 ± 5.9e-05 | 0.000217 ± 5.8e-05 | 0.000764 ± 0.00022 | 0.00204 ± 0.00041 | 0.00304 ± 0.00059 |
| U47A C50A | 4.12e-05 ± 2e-06 | 5840 ± 720 |  |  |  |  | 2.6e-05 ± 9.8e-06 |
| G43U A64G | 0.000133 ± 1.2e-05 | 6370 ± 1300 |  |  |  | 3.85e-05 ± 8.6e-06 | 8.1e-05 ± 8.2e-06 |
| G37U U49A C61G C70G | 2.13e-05 ± 6.5e-06 |  |  |  |  |  |  |
